Here are results for 1 substance from PMC3949579.

Assay [1] deals with DBAIg (full recombinant mouse IgG2b antibody encoding the DBA/1J Ighv1-4 germline sequence) (mouse (DBA/1J) | mouse). Description: SPR.
Assay [2] addresses M2139Ig (full recombinant mouse IgG2b antibody with the M2139 sequence) (mouse). The experiment in a line: SPR.

Consider “triple-helical J1 peptide (synthetic peptide containing the J1 epitope of type II collagen)”, for which, in assay [1], the Kd was 274 nM, the koff came to 0.00446 s⁻¹ and the kon was 16300 M⁻¹ s⁻¹. Further, in assay [2], the dissociation constant (Kd) worked out at 38.8 nM, the koff was determined as 0.00268 s⁻¹ and the kon came out at 68900 M⁻¹ s⁻¹.
